The record followed here is patent US20230287095A1 (published 2023).

T1: human pro-EMAPII (human, UniProt Q12904 1-312)
T1 chain: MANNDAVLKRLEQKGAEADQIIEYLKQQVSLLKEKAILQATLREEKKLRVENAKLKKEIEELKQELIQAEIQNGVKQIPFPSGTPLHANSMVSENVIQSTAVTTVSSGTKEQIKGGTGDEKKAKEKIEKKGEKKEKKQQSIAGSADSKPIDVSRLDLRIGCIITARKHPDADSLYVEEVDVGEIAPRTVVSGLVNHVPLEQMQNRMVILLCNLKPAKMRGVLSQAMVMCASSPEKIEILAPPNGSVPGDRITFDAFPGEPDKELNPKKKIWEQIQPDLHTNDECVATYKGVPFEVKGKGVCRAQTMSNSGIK

B1: Humanized HC1 + LC3 (antibody)
heavy: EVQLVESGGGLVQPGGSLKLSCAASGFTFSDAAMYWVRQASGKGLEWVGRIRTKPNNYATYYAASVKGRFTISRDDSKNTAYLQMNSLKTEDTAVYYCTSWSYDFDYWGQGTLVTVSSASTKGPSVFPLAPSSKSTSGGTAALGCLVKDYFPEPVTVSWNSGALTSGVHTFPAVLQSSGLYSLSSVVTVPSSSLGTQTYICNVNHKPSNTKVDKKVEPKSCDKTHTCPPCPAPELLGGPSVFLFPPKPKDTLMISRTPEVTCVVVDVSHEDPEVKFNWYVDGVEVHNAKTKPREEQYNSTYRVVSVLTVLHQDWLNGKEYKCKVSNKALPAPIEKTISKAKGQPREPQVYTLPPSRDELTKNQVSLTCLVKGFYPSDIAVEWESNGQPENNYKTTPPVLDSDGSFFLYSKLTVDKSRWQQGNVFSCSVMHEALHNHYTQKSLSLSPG
light: DIVMTQSPLSLPVTPGEPASISCRSSKSLLHSSGKTYLNWYLQKPGQSPQLLIYWMSTRASGVPDRFSGSGSGTDFTLKISRVEAEDVGVYYCQQFLEYPLTFGGGTKVEIKRTVAAPSVFIFPPSDEQLKSGTASVVCLLNNFYPREAKVQWKVDNALQSGNSQESVTEQDSKDSTYSLSSTLTLSKADYEKHKVYACEVTHQGLSSPVTKSFNRGEC
B2: Humanized HC4 + LC3 (antibody)
heavy: not shown
light: DIVMTQSPLSLPVTPGEPASISCRSSKSLLHSSGKTYLNWYLQKPGQSPQLLIYWMSTRASGVPDRFSGSGSGTDFTLKISRVEAEDVGVYYCQQFLEYPLTFGGGTKVEIKRTVAAPSVFIFPPSDEQLKSGTASVVCLLNNFYPREAKVQWKVDNALQSGNSQESVTEQDSKDSTYSLSSTLTLSKADYEKHKVYACEVTHQGLSSPVTKSFNRGEC
B3: Humanized HC5 + LC3 (antibody)
heavy: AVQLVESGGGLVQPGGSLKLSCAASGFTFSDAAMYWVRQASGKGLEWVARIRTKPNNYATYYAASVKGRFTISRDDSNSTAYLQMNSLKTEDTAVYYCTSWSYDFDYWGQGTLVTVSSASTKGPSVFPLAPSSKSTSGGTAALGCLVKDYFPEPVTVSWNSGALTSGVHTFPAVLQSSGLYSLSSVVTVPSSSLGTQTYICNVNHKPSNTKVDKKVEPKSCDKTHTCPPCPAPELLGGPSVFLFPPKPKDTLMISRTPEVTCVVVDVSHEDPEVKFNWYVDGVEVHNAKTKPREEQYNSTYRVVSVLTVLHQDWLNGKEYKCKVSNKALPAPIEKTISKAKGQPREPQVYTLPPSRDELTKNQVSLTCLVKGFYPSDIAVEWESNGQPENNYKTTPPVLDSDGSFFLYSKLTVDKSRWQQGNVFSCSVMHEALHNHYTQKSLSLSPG
light: DIVMTQSPLSLPVTPGEPASISCRSSKSLLHSSGKTYLNWYLQKPGQSPQLLIYWMSTRASGVPDRFSGSGSGTDFTLKISRVEAEDVGVYYCQQFLEYPLTFGGGTKVEIKRTVAAPSVFIFPPSDEQLKSGTASVVCLLNNFYPREAKVQWKVDNALQSGNSQESVTEQDSKDSTYSLSSTLTLSKADYEKHKVYACEVTHQGLSSPVTKSFNRGEC
B4: Humanized HC2 + LC3 (antibody)
heavy: not shown
light: DIVMTQSPLSLPVTPGEPASISCRSSKSLLHSSGKTYLNWYLQKPGQSPQLLIYWMSTRASGVPDRFSGSGSGTDFTLKISRVEAEDVGVYYCQQFLEYPLTFGGGTKVEIKRTVAAPSVFIFPPSDEQLKSGTASVVCLLNNFYPREAKVQWKVDNALQSGNSQESVTEQDSKDSTYSLSSTLTLSKADYEKHKVYACEVTHQGLSSPVTKSFNRGEC
B5: Humanized HC3 + LC3 (antibody)
heavy: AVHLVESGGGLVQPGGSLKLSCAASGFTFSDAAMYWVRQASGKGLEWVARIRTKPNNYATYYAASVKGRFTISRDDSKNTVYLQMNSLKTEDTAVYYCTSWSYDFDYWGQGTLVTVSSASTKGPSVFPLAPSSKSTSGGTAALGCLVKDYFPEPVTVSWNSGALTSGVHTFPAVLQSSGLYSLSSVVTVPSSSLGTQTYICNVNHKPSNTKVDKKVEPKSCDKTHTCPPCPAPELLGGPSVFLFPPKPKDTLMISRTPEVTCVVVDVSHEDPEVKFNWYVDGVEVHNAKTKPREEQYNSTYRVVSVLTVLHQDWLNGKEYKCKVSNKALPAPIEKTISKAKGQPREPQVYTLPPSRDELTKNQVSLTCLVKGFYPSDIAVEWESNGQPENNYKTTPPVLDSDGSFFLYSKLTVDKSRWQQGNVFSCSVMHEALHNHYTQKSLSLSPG
light: DIVMTQSPLSLPVTPGEPASISCRSSKSLLHSSGKTYLNWYLQKPGQSPQLLIYWMSTRASGVPDRFSGSGSGTDFTLKISRVEAEDVGVYYCQQFLEYPLTFGGGTKVEIKRTVAAPSVFIFPPSDEQLKSGTASVVCLLNNFYPREAKVQWKVDNALQSGNSQESVTEQDSKDSTYSLSSTLTLSKADYEKHKVYACEVTHQGLSSPVTKSFNRGEC
B6: Humanized HC5 + LC2 (antibody)
heavy: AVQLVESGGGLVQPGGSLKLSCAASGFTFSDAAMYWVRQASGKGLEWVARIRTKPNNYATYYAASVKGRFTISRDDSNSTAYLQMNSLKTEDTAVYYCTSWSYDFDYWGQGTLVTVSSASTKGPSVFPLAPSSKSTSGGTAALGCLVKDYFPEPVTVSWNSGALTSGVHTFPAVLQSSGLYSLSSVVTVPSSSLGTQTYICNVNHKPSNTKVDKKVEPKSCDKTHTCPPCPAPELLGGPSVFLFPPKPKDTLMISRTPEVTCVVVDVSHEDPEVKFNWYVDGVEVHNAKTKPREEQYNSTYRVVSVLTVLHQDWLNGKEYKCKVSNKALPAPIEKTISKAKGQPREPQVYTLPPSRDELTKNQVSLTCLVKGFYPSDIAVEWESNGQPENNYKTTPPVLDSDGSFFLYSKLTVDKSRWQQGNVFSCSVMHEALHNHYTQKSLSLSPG
light: DIVMTQSPLSLPVTPGEPASISCRSSKSLLHSSGKTYLNWYLQKPGQSPQLLIYWMSTRASGVPDRFSGSGSGTDFTLKISRVEAEDVGVYYCQQFLEYPLTFGQGTKLEIKRTVAAPSVFIFPPSDEQLKSGTASVVCLLNNFYPREAKVQWKVDNALQSGNSQESVTEQDSKDSTYSLSSTLTLSKADYEKHKVYACEVTHQGLSSPVTKSFNRGEC
B7: Humanized HC2 + LC2 (antibody)
heavy: not shown
light: DIVMTQSPLSLPVTPGEPASISCRSSKSLLHSSGKTYLNWYLQKPGQSPQLLIYWMSTRASGVPDRFSGSGSGTDFTLKISRVEAEDVGVYYCQQFLEYPLTFGQGTKLEIKRTVAAPSVFIFPPSDEQLKSGTASVVCLLNNFYPREAKVQWKVDNALQSGNSQESVTEQDSKDSTYSLSSTLTLSKADYEKHKVYACEVTHQGLSSPVTKSFNRGEC
B8: Humanized HC4 + LC2 (antibody)
heavy: not shown
light: DIVMTQSPLSLPVTPGEPASISCRSSKSLLHSSGKTYLNWYLQKPGQSPQLLIYWMSTRASGVPDRFSGSGSGTDFTLKISRVEAEDVGVYYCQQFLEYPLTFGQGTKLEIKRTVAAPSVFIFPPSDEQLKSGTASVVCLLNNFYPREAKVQWKVDNALQSGNSQESVTEQDSKDSTYSLSSTLTLSKADYEKHKVYACEVTHQGLSSPVTKSFNRGEC
B9: Humanized HC3 + LC2 (antibody)
heavy: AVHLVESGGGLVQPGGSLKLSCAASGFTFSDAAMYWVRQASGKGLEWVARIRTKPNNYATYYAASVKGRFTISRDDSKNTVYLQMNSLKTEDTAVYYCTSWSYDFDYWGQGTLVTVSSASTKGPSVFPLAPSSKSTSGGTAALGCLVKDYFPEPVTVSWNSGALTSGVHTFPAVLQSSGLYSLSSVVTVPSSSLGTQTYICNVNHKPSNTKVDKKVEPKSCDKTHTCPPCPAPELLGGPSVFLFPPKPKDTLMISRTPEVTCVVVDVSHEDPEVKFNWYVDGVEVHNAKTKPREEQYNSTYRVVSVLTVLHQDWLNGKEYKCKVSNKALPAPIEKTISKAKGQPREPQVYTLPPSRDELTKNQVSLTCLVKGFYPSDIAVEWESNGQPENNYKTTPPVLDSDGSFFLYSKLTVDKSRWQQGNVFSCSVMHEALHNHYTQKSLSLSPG
light: DIVMTQSPLSLPVTPGEPASISCRSSKSLLHSSGKTYLNWYLQKPGQSPQLLIYWMSTRASGVPDRFSGSGSGTDFTLKISRVEAEDVGVYYCQQFLEYPLTFGQGTKLEIKRTVAAPSVFIFPPSDEQLKSGTASVVCLLNNFYPREAKVQWKVDNALQSGNSQESVTEQDSKDSTYSLSSTLTLSKADYEKHKVYACEVTHQGLSSPVTKSFNRGEC
B10: Humanized HC1 + LC2 (antibody)
heavy: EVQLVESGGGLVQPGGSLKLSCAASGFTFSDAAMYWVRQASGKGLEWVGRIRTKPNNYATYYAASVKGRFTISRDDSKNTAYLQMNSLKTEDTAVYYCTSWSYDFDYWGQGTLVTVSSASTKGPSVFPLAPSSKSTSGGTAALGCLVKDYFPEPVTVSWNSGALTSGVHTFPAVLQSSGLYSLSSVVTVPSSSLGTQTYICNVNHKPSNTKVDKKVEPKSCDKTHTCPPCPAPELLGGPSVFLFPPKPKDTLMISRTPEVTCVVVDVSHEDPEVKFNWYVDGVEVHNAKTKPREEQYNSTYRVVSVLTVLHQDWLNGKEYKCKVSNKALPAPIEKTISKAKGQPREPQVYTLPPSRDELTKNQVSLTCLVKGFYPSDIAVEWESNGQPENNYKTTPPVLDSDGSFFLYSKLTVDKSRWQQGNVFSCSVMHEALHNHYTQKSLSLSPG
light: DIVMTQSPLSLPVTPGEPASISCRSSKSLLHSSGKTYLNWYLQKPGQSPQLLIYWMSTRASGVPDRFSGSGSGTDFTLKISRVEAEDVGVYYCQQFLEYPLTFGQGTKLEIKRTVAAPSVFIFPPSDEQLKSGTASVVCLLNNFYPREAKVQWKVDNALQSGNSQESVTEQDSKDSTYSLSSTLTLSKADYEKHKVYACEVTHQGLSSPVTKSFNRGEC
B11: Humanized HC3 + LC4 (antibody)
heavy: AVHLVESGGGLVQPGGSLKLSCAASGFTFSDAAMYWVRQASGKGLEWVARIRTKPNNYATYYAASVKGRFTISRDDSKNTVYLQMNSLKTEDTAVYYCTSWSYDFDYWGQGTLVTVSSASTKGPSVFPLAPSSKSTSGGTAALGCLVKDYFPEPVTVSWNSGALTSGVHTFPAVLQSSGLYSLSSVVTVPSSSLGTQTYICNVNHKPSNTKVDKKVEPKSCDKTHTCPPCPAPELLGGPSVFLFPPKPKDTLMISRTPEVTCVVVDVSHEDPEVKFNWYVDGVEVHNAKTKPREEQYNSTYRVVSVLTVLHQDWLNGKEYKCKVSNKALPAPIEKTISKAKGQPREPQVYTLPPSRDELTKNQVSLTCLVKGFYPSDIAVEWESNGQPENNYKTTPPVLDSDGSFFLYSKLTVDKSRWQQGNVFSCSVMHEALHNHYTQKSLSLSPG
light: DIQMTQSPLSLPVTPGEPASISCRSSKSLLHSSGKTYLNWYLQKPGQSPQLLIYWMSTRASGVPDRFSGSGSGTDFTLKISRVEAEDVGVYYCQQFLEYPLTFGGGTKVEIKRTVAAPSVFIFPPSDEQLKSGTASVVCLLNNFYPREAKVQWKVDNALQSGNSQESVTEQDSKDSTYSLSSTLTLSKADYEKHKVYACEVTHQGLSSPVTKSFNRGEC
B12: Humanized HC1 + LC4 (antibody)
heavy: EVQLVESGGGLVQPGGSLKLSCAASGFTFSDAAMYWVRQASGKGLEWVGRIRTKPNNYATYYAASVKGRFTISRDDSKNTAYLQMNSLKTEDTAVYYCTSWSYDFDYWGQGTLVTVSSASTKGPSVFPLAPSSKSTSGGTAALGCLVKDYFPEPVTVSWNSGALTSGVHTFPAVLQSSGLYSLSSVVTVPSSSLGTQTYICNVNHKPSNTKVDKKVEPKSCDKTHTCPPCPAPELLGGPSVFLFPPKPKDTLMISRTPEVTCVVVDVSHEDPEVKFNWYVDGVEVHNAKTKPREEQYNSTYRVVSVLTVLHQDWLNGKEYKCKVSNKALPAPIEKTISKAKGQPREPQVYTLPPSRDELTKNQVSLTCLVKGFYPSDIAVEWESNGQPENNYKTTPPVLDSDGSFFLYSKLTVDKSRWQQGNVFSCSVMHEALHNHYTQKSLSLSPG
light: DIQMTQSPLSLPVTPGEPASISCRSSKSLLHSSGKTYLNWYLQKPGQSPQLLIYWMSTRASGVPDRFSGSGSGTDFTLKISRVEAEDVGVYYCQQFLEYPLTFGGGTKVEIKRTVAAPSVFIFPPSDEQLKSGTASVVCLLNNFYPREAKVQWKVDNALQSGNSQESVTEQDSKDSTYSLSSTLTLSKADYEKHKVYACEVTHQGLSSPVTKSFNRGEC
B13: Humanized HC5 + LC4 (antibody)
heavy: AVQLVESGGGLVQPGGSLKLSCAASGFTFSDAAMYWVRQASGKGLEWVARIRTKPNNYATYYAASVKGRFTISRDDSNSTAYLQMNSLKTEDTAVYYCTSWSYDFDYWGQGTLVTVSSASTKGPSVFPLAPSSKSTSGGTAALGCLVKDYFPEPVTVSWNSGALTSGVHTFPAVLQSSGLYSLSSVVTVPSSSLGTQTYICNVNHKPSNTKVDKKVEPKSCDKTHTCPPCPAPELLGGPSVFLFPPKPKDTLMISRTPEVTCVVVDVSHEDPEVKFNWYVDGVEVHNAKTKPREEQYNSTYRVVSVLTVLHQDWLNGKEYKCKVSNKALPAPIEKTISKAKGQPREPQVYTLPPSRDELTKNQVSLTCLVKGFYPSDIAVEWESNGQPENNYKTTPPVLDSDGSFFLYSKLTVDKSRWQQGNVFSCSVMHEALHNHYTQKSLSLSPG
light: DIQMTQSPLSLPVTPGEPASISCRSSKSLLHSSGKTYLNWYLQKPGQSPQLLIYWMSTRASGVPDRFSGSGSGTDFTLKISRVEAEDVGVYYCQQFLEYPLTFGGGTKVEIKRTVAAPSVFIFPPSDEQLKSGTASVVCLLNNFYPREAKVQWKVDNALQSGNSQESVTEQDSKDSTYSLSSTLTLSKADYEKHKVYACEVTHQGLSSPVTKSFNRGEC
B14: Humanized HC2 + LC4 (antibody)
heavy: not shown
light: DIQMTQSPLSLPVTPGEPASISCRSSKSLLHSSGKTYLNWYLQKPGQSPQLLIYWMSTRASGVPDRFSGSGSGTDFTLKISRVEAEDVGVYYCQQFLEYPLTFGGGTKVEIKRTVAAPSVFIFPPSDEQLKSGTASVVCLLNNFYPREAKVQWKVDNALQSGNSQESVTEQDSKDSTYSLSSTLTLSKADYEKHKVYACEVTHQGLSSPVTKSFNRGEC
B15: Humanized HC4 + LC4 (antibody)
heavy: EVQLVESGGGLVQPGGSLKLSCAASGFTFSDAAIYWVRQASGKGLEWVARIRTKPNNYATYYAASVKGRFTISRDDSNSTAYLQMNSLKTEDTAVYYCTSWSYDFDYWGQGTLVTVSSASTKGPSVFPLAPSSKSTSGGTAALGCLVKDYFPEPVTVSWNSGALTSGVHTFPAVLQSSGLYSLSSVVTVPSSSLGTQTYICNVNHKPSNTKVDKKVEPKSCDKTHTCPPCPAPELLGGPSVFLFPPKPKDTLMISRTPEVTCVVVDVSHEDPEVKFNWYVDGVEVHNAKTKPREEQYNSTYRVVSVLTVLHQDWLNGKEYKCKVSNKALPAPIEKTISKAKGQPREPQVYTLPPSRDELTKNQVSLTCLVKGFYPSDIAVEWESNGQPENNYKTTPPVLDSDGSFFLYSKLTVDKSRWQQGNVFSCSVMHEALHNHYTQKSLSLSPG
light: DIQMTQSPLSLPVTPGEPASISCRSSKSLLHSSGKTYLNWYLQKPGQSPQLLIYWMSTRASGVPDRFSGSGSGTDFTLKISRVEAEDVGVYYCQQFLEYPLTFGGGTKVEIKRTVAAPSVFIFPPSDEQLKSGTASVVCLLNNFYPREAKVQWKVDNALQSGNSQESVTEQDSKDSTYSLSSTLTLSKADYEKHKVYACEVTHQGLSSPVTKSFNRGEC
B16: Humanized HC5 + LC1 (antibody, V domains shown)
VH: AVQLVESGGGLVQPGGSLKLSCAASGFTFSDAAMYWVRQASGKGLEWVARIRTKPNNYATYYAASVKGRFTISRDDSNSTAYLQMNSLKTEDTAVYYCTSWSYDFDYWGQGTLVTVSS
VL: DIVMTQSPLSLPVTPGEPASISCRSSKSLLHSSGKTYLNWYLQKPGQSPQLLIYWMSNRASGVPDRFSGSGSGTDFTLKISRVEAEDVGVYYCQQFLEYPLTFGQGTKLEIKR
B17: Humanized HC1 + LC1 (antibody, V domains shown)
VH: EVQLVESGGGLVQPGGSLKLSCAASGFTFSDAAMYWVRQASGKGLEWVGRIRTKPNNYATYYAASVKGRFTISRDDSKNTAYLQMNSLKTEDTAVYYCTSWSYDFDYWGQGTLVTVSS
VL: DIVMTQSPLSLPVTPGEPASISCRSSKSLLHSSGKTYLNWYLQKPGQSPQLLIYWMSNRASGVPDRFSGSGSGTDFTLKISRVEAEDVGVYYCQQFLEYPLTFGQGTKLEIKR
B18: Humanized HC4 + LC1 (antibody, V domains shown)
VH: EVQLVESGGGLVQPGGSLKLSCAASGFTFSDAAIYWVRQASGKGLEWVARIRTKPNNYATYYAASVKGRFTISRDDSNSTAYLQMNSLKTEDTAVYYCTSWSYDFDYWGQGTLVTVSS
VL: DIVMTQSPLSLPVTPGEPASISCRSSKSLLHSSGKTYLNWYLQKPGQSPQLLIYWMSNRASGVPDRFSGSGSGTDFTLKISRVEAEDVGVYYCQQFLEYPLTFGQGTKLEIKR
B19: Humanized HC3 + LC1 (antibody)
heavy: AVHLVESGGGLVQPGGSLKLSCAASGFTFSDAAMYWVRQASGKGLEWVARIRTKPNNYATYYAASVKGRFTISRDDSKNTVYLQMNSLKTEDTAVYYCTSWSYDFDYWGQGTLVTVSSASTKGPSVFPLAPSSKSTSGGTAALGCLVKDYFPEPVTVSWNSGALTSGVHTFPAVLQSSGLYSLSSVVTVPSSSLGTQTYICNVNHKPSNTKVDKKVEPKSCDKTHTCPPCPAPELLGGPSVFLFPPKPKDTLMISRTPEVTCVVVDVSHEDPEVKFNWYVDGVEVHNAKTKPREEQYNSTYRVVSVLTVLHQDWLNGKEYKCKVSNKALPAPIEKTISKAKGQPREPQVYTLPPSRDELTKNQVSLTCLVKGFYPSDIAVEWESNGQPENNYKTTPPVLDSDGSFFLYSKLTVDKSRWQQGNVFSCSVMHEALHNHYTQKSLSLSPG
light: DIVMTQSPLSLPVTPGEPASISCRSSKSLLHSSGKTYLNWYLQKPGQSPQLLIYWMSNRASGVPDRFSGSGSGTDFTLKISRVEAEDVGVYYCQQFLEYPLTFGQGTKLEIKRTVAAPSVFIFPPSDEQLKSGTASVVCLLNNFYPREAKVQWKVDNALQSGNSQESVTEQDSKDSTYSLSSTLTLSKADYEKHKVYACEVTHQGLSSPVTKSFNRGEC
B20: Humanized HC2 + LC1 (antibody)
heavy: not shown
light: DIVMTQSPLSLPVTPGEPASISCRSSKSLLHSSGKTYLNWYLQKPGQSPQLLIYWMSNRASGVPDRFSGSGSGTDFTLKISRVEAEDVGVYYCQQFLEYPLTFGQGTKLEIKRTVAAPSVFIFPPSDEQLKSGTASVVCLLNNFYPREAKVQWKVDNALQSGNSQESVTEQDSKDSTYSLSSTLTLSKADYEKHKVYACEVTHQGLSSPVTKSFNRGEC

In one experiment the target is T1, human pro-EMAPII. Nature of the experiment: ELISA. In general terms: ELISA stands for enzyme-linked immunosorbent assay.
One may read the EC50 as the concentration at which the effect is half-maximal. Molecule B1 had an EC50 of 0.108 mg/L.
On the same count and under the same terms, for B2 the value was 0.229 mg/L; for B3, 0.2 mg/L; for B4, 0.075 mg/L.
The molecule B5 came in with a concentration for a half-maximal effect (EC50) of 0.077 mg/L.

The next experiment deals with T1, human pro-EMAPII. Description: ELISA. This is another data set of the same source.
As for B6, the EC50 is 0.17 mg/L.
Still for that read-out and setting: for B7 the value was 0.112 mg/L; for B8, 0.271 mg/L.
Still for that read-out and setting: the value for B9 was 0.081 mg/L; that for B10 was 0.089 mg/L.

In another experiment the target is T1, human pro-EMAPII. Description: ELISA. The source holds these as a separate data set.
On to B11, for which the midpoint of the response, the EC50, lay at 0.07 mg/L.
On the same count and under the same terms, for B12 the value was 0.113 mg/L; for B13, 0.166 mg/L.
The same measure, in the same setting: the value for B14 was 0.078 mg/L; that for B15 was 0.197 mg/L.

The next experiment deals with T1, human pro-EMAPII. Description: ELISA. This is another data set of the same source.
With B16, a half-maximal effect (EC50) was put at 0.163 mg/L.
The same measure, in the same setting: for B17 the value was 0.098 mg/L; for B18, 0.198 mg/L.
Still for that read-out and setting: for B19 the value was 0.082 mg/L; for B20, 0.076 mg/L.
